Values quoted from earlier work as cited in article PMC12930849.
Values joined by “and” are separate entries in the source; they are usually repeats but may differ in a detail not shown here. Identical values can stand only once.

Columns and labels:
Test in all cases: NMR
Asp119 = Asp119 (UniProt position 137, RCKGTDVQAWI)
Asp101 = Asp101 (UniProt position 119, KKIVSDGNGMN)
Cterm = Cterm (UniProt position 147, IRGCRL-----)
Asp18 = Asp18 (UniProt position 36, KRHGLDNYRGY)
Asp87 = Asp87 (UniProt position 105, ALLSSDITASV)
His15 = His15 (UniProt position 33, AAMKRHGLDNY)
Glu35 = Glu35 (UniProt position 53, CAAKFESNFNT)
Glu7 = Glu7 (UniProt position 25, VFGRCELAAAM)
Asp52 = Asp52 (UniProt position 70, TDGSTDYGILQ)

In the case of “Hen egg-white lysozyme (lysozyme C) (Gallus gallus)”, the pKa (Asp119) is listed as 3.20 ± 0.09 and 3.5 ± 0.3, the pKa (Asp101) is listed as 4.09 ± 0.07 and 4.5 ± 0.1 and the pKa (Cterm) is listed as 2.75 ± 0.02 and 2.7 ± 0.2. For the same substance, the pKa (Asp18) was 2.66 ± 0.08 and 2.8 ± 0.3, the pKa (Asp87) was 2.07 ± 0.15 and 2.2 ± 0.1 and the pKa (His15) was 5.36 ± 0.07 and 5.5 ± 0.2. For the same substance, the pKa (Glu35) was 6.20 ± 0.10 and 6.1 ± 0.4, the pKa (Glu7) was 2.85 ± 0.25 and 2.6 ± 0.2 and the pKa (Asp52) was 3.68 ± 0.08 and 3.6 ± 0.3.
